Laboratory results as given in paper PMC7761029, “Identifying Genes Involved in Alkaloid Biosynthesis in Vinca minor through Transcriptomics and Gene Co-Expression Analysis” (Biomolecules, 2020).

Tests used:
[1] = substrate: [H][C@]12N3CC=C[C@@]1(CC)CC(C(=O)OC)=C1Nc4cc(O)ccc4[C@@]12CC3; experiment: initial velocities of 16-methoxytabersonine formation, LC-MS, Michaelis-Menten non-linear regression; format: biochemical, Vinca minor; details: fixed SAM, 0.2-100 µM substrate, 50 mM potassium phosphate pH 7, 25 mM ascorbic acid, 30 °C
purified protein = substrate: C[S+](CC[C@H](N)C(=O)O)C[C@H]1O[C@@H](n2cnc3c(N)ncnc32)[C@H](O)[C@@H]1O; experiment: purified protein; details: methyl donor, fixed 16-hydroxytabersonine, 1-200 µM SAM, 50 mM potassium phosphate pH 7, 25 mM ascorbic acid, 30 °C

B1: Vm16OMT (Vinca minor) (protein)
chain: MDVQSDEFSKAQAHIWSQVLCHIPTATIKCAIELGIPDAIDNHGKAMTLAELTNSLPLINPSKAPFVRRLMRILVKNGFFSEQQITNDHIAYGLTPSSRILLKNEPLNLRGLVLANLDPSHMKSWVALSEWFQNDNEEAKTAFEIAHNGKNFWDYSAEDTEHAEIFNEAMASDSKLVSELLINTEYKLLFEGLTSMVDVGGGTGTIAKAIAKTFPNLNCTVFDLPHVVANLESMGNLEFVAGDMFVKIPPANAIFLKWILHDWNDEDCVKILKACKKAIPEKEKGGKVIVIDTVIGSKINDDESIKAQLSMDMGMMVDFASKERDEKEWASLFKEAGFSNYKIFPKLDFIRSVIEVYP
Question: For B1, which Km [1] is on record?
Answer: 0.94 ± 0.06 µM

Question: And the kcat [1]?
Answer: 0.0144 s⁻¹

Question: What about the Km (purified protein) of the same protein?
Answer: 46.2 ± 6.1 µM

Question: And the kcat (purified protein)?
Answer: 0.039 s⁻¹
